From US20070293656A1, “COLLAGEN BINDING PEPTIDES” (Epix Pharmaceuticals, Inc., priority 2005, published 2007)
Where “and” joins values, the source holds several entries; their conditions need not be identical. Equal entries are not always repeated. Bridge positions count the residues as written; N and C are the ends. Ends that are not written are not given here. Glu‑DTPA‑Gd = N-terminal Glu-DTPA-Gd chelate (gadolinium DTPA complex on glutamic acid)

Experiments:
human type I collagen = biological target: T1, human type I collagen (Homo sapiens, UniProt P02452+P08123); experiment: MR phantom study: T1 of samples in human collagen gel; format: physicochemical; details: in 7.5 μM human collagen gel; 10 μM Compound ID 1022; 0.47 Tesla, 37° C.
T1 construct: Acid soluble human collagen extracted from placenta; purchased Sigma C7774 (lot #083K375); host or cells: human placenta
Protocol: Acid soluble human collagen type I extracted from placenta (Sigma, cat #C7774, lot #083K375) was dissolved in 15 mM HCl (3.5 mg/mL) by vortexing and gently shaking for 3-4 hours at 4° C. The acid soluble collagen was dialyzed against PBS (pH 7.4). Protein concentration was determined by the BCA method (Pierce, Cat #23225) using bovine collagen (Vitrogen, cat #FXP-019) as a reference standard. The final collagen concentration for the stock solution was 9 μM.
(§1) Samples: • 1. […] Sample prepared as sample 2, but centrifuged to separate insoluble rat collagen gel • 5. Sample prepared as sample 3, but centrifuged to separate insoluble human collagen gel • 6. 27 μM GdDTPA solution in PBS, pH 7.4 • 7. 27 μM GdDTPA in a solution of 5.0 μM rat type I collagen in 10 mM phosphate buffer, pH 5 incubated at 37° C. overnight to form a gel • 8. Sample prepared as in sample 7, but centrifuged to separate insoluble rat collagen gel • 9. Homogeneous gel of 5 μM rat collagen • 10. Homogeneous gel of 7.5 μM human collagen
T1 was determined for samples 1, 2, 3, 6, 7, 9, 10 at 0.47 Tesla using a Bruker NMS120 minispec NMR analyzer operating at 37° C.

rat type I collagen = biological target: T2, rat type I collagen (Rattus norvegicus, UniProt P02454+P02466); experiment: MR phantom imaging of collagen gel samples at 4.7 T; details: centrifuged samples 4 and 8, 4.7 T
T2 construct: Rat collagen (acid soluble, type I, rat tail); purchased Upstate USA, Inc 08-115; host or cells: rat tail
Protocol: as §1
Samples for imaging were placed in glass tubes that were in turn placed in tubes containing water. Images were acquired at 4.7 T on a Bruker Biospec Imager using a Multi-Slice Multi-Echo Method with variable Relaxation Delay (MSMEVTR) experiment. The spin echo time and the relaxation delay were set to TE=11.2 ms and TR=500 ms, respectively with a flip angle of 30°. Images were acquired of sample 2, sample 4, sample 7, and sample 8. […] Sample 7 and 8 show uniform signal intensity.

[1] = Biodistribution analysis in rats (heart and blood, radiotracer); format: in vivo, Sprague-Dawley rats; details: rat, 1 and 5 min post injection
Protocol: Concentration estimates were decay corrected. Studies were performed at least in duplicate.

[2] = system: perfused Langendorff rat heart; experiment: Equilibrium binding to perfused Langendorff rat heart; details: perfused 10 minutes, recycled
Protocol: After deep anesthesia with pentobarbital (80 mg/kg ip), the chest cavity of a male Sprague Dawley rat (300 g) was opened, retracted and the heart was removed immediately and placed in an ice-cold normal Krebs-Henseleit (K-H) solution (NaCl, 118 mM; KCl, 4.7 mM; CaCl2, 2.5 mM; MgSO4, 1.2 mM; KH2PO4, 1.2 mM; NaHCO3, 25 mM; glucose, 5.5 mM). A K-H buffer filled 20 Gauge needle was inserted into the apex of the heart penetrating into the bottom of the chamber. This was attached to a pressure transducer used to record and monitor heart function. Perfusion pressure (˜60 mmHg) was monitored using a second transducer. The heart was perfused at a constant flow rate of 10-12 mL/min with 37° C. […]
Two peptide test articles, a high collagen binding peptide (SEQ ID NO: 144) and a low collagen binding peptide (SEQ ID NO: 173), are compared to GdDTPA. […] The amount of radioactivity added to the buffer solution was 1-5 μCi.
The heart was perfused for a period of 10 minutes and the perfusion solution was recycled through the heart. […] The heart was then weighed and the radioactivity in the heart measured with a Packard Cobra 5003 Gamma Scintillation counter. An aliquot of the K-H buffer was also weighed and counted. […]
The dual peptide gadolinium tetramer (Compound ID 803) was compared to GdDTPA. […] The amount of radioactivity added to the buffer solution was 1-5 μCi.

[3] = system: perfused Langendorff rat heart; experiment: Washout kinetics from perfused Langendorff rat heart; details: 10 minutes perfusion with buffer after infusion
Protocol: A K-H buffer filled 20 Gauge needle was inserted into the apex of the heart penetrating into the bottom of the chamber. This was attached to a pressure transducer used to record and monitor heart function. Perfusion pressure (˜60 mmHg) was monitored using a second transducer. The heart was perfused at a constant flow rate of 10-12 mL/min with 37° C. […] The heart was paced at 300 beats/min.
A Langendorff rat heart preparation was perfused with K-H buffer at a rate of 10-12 mL/min. […] After the infusion was finished, the heart was either removed or perfusion was allowed to continue for an additional 10 minutes and then the heart was removed. The perfusion buffer was not recirculated through the heart. After removal of any connective tissue, the heart was opened, fluid in the chambers drained, and the interior blotted dry with filter paper. […] An aliquot of the K-H buffer was also weighed and counted. Concentration estimates were decay corrected. Studies were performed at least in duplicate.
A Langendorff rat heart preparation was perfused with K-H buffer at a rate of 10-12 mL/min. […] After the infusion was finished, the heart was either removed or perfusion was allowed to continue for an additional 10 minutes and then the heart was removed. The perfusion buffer was not recirculated through the heart. After removal of any connective tissue, the heart was opened, fluid in the chambers drained, and the interior blotted dry with filter paper. […] An aliquot of the K-5H buffer was also weighed and counted. Concentration estimates were decay corrected. Studies were performed at least in duplicate.

C57BL/6 mouse [4] = details: 25 μmol/kg i.v. bolus
Protocol: A 28 g C57BL/6 mouse was anesthetized using a 2% mixture of isoflurane in oxygen and anesthesia was maintained with a 1% mixture. The mouse forelimbs were shaved and fitted with pediatric ECG leads (Blue Sensor, BRS-50-K/US, Ambu, Inc., Linthicum, MD). […] Temperature was maintained at 37° C. using tubing that contained circulating, thermostated water. An i.v. line was implanted in the tail vein and the mouse was placed in the magnet.
(§2) Images were acquired on a Varian 4.7-T Inova scanner. A cardiac-gated gradient echo inversion recovery sequence was used whereby the inversion time was set to null the signal from the myocardium. The inversion pulse was a non-selective sinc pulse with a TI of 430 ms and TR of 3 seconds. The excitation is slice selective at 90 degrees and 3 to 4 lines were acquired per TR. Scan time was 4-5 minutes.
(§3) Baseline images were acquired. Typically 3-4 short-axis slices were acquired. […] Imaging was repeated out to an hour post injection.
Four ROIs were measured in the myocardium and in the left ventricle and the average measurements was taken. Signal to noise ratios (SNR) were calculated as signal intensity in myocardium or blood divided by the standard deviation of the noise. […] Contrast to noise ratios (CNR) for myocardium relative to blood pool was also calculated as: CNR=(SImyocardium−SIblood)/(SDnoise).

C57BL/6 mouse [5] = details: 7-day old infarction, 25 μmol/kg i.v. bolus
Protocol: A myocardial infarct (MI) was induced in a 28 g C57BL/6 mouse by a 1-hr occlusion of the left anterior descending coronary artery, followed by reperfusion. The mouse was allowed to recover. Seven days post MI, the mouse was anesthetized using a 2% mixture of isoflurane in oxygen and anesthesia was maintained with a 1% mixture. The mouse forelimbs were shaved and fitted with pediatric ECG leads (Blue Sensor, BRS-50-K/US, Ambu, Inc., Linthicum, Md.). […] Temperature was maintained at 37° C. using tubing that contained circulating, thermostated water. An i.v. line was implanted in the tail vein and the mouse was placed in the magnet.
as §2, §3

[6] = 10 μmol/kg
[7] = 40 day old infarcts, 50 min post-injection, two animals, listed as Compound ID NO. 800

T1 sequence (P02452 162-1218 limits assumed): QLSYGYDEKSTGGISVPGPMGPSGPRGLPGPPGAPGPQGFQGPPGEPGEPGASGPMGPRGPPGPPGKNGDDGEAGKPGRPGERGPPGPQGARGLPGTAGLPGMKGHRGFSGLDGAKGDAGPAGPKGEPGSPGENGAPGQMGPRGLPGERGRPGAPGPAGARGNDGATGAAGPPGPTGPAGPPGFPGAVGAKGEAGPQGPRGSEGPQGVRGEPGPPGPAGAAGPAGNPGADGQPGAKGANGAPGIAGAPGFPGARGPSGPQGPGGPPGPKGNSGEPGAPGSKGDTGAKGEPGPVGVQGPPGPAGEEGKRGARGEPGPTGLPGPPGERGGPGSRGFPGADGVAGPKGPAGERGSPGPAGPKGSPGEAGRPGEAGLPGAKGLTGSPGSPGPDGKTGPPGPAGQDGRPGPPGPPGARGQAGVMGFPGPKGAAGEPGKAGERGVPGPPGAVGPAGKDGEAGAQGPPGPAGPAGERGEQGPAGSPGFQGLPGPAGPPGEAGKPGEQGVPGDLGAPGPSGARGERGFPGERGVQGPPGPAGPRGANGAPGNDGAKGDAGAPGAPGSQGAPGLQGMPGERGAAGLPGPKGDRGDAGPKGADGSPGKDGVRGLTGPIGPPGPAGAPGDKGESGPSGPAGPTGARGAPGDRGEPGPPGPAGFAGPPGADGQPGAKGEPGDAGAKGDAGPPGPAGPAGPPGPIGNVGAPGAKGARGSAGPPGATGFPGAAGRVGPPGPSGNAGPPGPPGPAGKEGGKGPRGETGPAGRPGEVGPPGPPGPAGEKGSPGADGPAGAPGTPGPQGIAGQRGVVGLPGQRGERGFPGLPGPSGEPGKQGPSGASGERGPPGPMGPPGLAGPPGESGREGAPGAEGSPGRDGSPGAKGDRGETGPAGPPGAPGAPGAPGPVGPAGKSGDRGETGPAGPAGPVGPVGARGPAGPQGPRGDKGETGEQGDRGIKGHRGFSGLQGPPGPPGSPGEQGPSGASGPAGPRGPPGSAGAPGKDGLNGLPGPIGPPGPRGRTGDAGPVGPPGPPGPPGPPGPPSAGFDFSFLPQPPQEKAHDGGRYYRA
T1 sequence (P08123 80-1119 limits assumed): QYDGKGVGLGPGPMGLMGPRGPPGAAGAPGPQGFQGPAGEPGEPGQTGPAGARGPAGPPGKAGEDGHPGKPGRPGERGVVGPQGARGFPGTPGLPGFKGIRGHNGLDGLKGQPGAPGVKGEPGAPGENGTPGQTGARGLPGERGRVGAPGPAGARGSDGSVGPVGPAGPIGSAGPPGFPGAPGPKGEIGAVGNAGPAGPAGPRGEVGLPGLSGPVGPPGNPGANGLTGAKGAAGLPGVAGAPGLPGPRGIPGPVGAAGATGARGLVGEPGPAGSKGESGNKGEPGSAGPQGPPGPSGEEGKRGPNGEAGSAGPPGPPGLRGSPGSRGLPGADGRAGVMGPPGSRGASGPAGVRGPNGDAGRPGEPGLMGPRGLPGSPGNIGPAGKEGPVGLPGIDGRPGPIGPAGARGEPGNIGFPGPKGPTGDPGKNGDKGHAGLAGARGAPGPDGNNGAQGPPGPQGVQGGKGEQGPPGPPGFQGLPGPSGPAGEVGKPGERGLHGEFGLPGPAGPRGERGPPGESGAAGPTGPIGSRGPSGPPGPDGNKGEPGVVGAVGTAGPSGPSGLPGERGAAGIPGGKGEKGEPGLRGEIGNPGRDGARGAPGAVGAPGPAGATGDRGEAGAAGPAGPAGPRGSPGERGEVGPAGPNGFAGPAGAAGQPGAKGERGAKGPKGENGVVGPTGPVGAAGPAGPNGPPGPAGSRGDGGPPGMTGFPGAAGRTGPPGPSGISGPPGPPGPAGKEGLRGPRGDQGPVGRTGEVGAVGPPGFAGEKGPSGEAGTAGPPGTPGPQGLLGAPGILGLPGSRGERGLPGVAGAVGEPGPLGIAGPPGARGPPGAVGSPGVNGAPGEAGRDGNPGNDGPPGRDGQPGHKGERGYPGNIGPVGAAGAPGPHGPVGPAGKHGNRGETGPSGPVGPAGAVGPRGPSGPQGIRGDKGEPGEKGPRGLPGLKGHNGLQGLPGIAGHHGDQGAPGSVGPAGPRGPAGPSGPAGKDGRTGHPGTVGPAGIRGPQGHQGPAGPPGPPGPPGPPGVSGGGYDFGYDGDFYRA
T2 sequence (P02454 152-1207 limits assumed): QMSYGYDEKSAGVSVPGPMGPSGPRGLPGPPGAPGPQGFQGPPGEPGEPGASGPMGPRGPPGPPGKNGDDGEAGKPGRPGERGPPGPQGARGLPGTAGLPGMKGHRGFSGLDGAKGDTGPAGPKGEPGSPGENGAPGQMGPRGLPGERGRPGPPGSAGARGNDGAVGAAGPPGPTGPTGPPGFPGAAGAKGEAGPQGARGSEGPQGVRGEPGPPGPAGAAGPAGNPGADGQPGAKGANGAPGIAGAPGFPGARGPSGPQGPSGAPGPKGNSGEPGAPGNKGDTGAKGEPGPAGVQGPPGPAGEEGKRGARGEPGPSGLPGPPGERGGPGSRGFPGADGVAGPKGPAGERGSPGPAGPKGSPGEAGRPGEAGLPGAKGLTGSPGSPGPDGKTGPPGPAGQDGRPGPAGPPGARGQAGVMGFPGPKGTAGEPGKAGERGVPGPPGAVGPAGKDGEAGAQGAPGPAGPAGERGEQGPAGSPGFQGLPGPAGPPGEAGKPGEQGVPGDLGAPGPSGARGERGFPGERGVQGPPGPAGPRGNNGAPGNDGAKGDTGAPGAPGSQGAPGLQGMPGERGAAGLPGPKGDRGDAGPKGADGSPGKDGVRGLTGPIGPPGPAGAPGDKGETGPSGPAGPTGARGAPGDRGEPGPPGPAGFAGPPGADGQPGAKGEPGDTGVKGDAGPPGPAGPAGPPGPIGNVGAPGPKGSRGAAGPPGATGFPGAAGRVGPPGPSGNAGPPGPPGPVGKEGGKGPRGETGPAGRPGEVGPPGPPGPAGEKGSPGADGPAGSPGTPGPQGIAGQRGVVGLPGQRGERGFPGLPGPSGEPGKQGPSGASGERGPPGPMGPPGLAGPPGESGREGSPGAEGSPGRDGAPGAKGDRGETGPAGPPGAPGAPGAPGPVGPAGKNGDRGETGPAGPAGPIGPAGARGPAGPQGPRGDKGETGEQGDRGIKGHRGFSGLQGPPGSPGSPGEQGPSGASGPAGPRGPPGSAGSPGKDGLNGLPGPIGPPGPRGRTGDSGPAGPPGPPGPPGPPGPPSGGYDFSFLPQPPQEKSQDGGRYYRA
T2 sequence (P02466 86-1125 limits assumed): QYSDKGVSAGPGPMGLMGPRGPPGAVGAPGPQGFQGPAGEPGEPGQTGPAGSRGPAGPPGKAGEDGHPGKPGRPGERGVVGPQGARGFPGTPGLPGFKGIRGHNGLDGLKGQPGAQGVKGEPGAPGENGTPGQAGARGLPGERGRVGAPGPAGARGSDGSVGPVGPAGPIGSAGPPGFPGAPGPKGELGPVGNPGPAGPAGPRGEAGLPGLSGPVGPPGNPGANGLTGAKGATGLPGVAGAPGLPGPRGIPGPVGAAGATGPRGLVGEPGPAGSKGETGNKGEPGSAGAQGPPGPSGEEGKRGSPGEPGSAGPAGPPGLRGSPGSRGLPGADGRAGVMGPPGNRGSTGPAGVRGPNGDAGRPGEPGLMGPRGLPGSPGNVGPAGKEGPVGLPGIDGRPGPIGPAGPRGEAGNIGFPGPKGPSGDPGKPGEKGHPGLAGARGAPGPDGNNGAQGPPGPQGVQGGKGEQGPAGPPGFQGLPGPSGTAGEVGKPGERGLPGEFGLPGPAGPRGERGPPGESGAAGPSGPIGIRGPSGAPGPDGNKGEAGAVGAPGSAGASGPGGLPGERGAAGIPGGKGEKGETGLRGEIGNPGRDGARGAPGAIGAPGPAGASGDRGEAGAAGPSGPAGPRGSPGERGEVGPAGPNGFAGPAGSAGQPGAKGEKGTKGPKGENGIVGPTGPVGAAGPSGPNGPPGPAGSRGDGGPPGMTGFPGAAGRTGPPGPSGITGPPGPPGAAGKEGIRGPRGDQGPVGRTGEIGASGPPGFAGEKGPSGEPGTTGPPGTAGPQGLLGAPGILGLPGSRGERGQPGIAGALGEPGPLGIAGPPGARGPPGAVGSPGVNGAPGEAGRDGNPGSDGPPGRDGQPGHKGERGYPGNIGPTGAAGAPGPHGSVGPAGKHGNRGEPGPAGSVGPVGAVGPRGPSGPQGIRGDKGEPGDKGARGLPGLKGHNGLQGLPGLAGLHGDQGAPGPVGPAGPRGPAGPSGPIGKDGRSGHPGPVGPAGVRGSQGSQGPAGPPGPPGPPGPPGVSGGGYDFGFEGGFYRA

Glu-DTPA-Gd-G.Q.W.H.C.T.T.R.F.P.H.H.Y.C.L.Y.G-PEG-H ({Glu‑DTPA‑Gd}-GQWHCTTRFPHHYCLYG; disulfide 5-14 (inferred); not fully specified (C-terminus)) [SEQ ID NO: 186]
T1 (human type I collagen): 2.100 s | signal of centrifuged collagen gel relative to supernatant (rat type I collagen): the pellet for sample 4 was much brighter than the supernatant

Q W T C S G D A Y T W H C N Y E (GQWTCSGDAYTWHCNYE; disulfide 5-14 (inferred)) [SEQ ID NO: 144, -G- Linker at the N-terminus]
heart uptake relative to GdDTPA control [1]: positive uptake in the heart relative to the GdDTPA negative control | heart uptake compared with GdDTPA [2]: about 10 times | percent of compound present at 0 minutes post infusion that remains at 10 minutes [3]: 68%

CC(C)C[C@H](NC(=O)[C@@H]1CSSC[C@H](NC(=O)[C@H](Cc2c[nH]cn2)NC(=O)[C@H](Cc2c[nH]c3ccccc23)NC(=O)[C@H](CCCCNC(=O)CNC(=S)Nc2ccc(C[C@@H](CN(CCN(CC(=O)O)CC(=O)O)CC(=O)O)N(CC(=O)O)CC(=O)O)cc2)NC(=O)CNC(=S)Nc2ccc(C[C@@H](CN(CCN(CC(=O)O)CC(=O)O)CC(=O)O)N(CC(=O)O)CC(=O)O)cc2)C(=O)N[C@@H]([C@@H](C)O)C(=O)N[C@@H]([C@@H](C)O)C(=O)N[C@@H](CCCCNC(=S)Nc2ccc(C[C@@H](CN(CCN(CC(=O)O)CC(=O)O)CC(=O)O)N(CC(=O)O)CC(=O)O)cc2)C(=O)N[C@@H](Cc2ccccc2)C(=O)N2CCC[C@H]2C(=O)N[C@@H](Cc2c[nH]cn2)C(=O)N[C@@H](Cc2c[nH]cn2)C(=O)N[C@@H](Cc2ccc(O)cc2)C(=O)N1)C(=O)N[C@@H](Cc1ccc(O)cc1)C(=O)N[C@@H](Cc1ccc(-c2ccccc2)cc1)C(N)=O [Compound ID 800]
persistence of myocardial enhancement (C57BL/6 mouse [4]): at least 1 hour | enhancement of the myocardium (C57BL/6 mouse [4]; 4.7-T): positive enhancement of the myocardium | enhancement of myocardium and infarcted zones (C57BL/6 mouse [5]): positive enhancement of the myocardium and hyperenhancement of infarcted zones | persistence of enhancement (C57BL/6 mouse [5]): at least 1 hour | retention of gadolinium in the heart [6]: ≥ 30 min | Gadolinium concentration in the heart ([6]; 1 minute post injection): 23.9±7.8 | MR enhancement of infarct zone versus viable myocardium (C57BL/6 mice; 7 day, 40 day or 210 day infarcts, 25 μmol/kg intravenous): infarct zone as hyperintense relative to the normal, viable myocardium | gadolinium concentration, blood (C57BL/6 mice; [7]): 27.8 nmol Gd/g and 14.6 nmol Gd/g | tissue gadolinium concentration, scar (C57BL/6 mice; [7]): 137 nmol Gd/g and 122 nmol Gd/g
